Assay results published in article PMC6956814, “Deubiquitinase USP28 inhibits ubiquitin ligase KLHL2-mediated uridine-cytidine kinase 1 degradation and confers sensitivity to 5'-azacytidine-resistant human leukemia cells” (Theranostics, 2020).

Biological target: T1, His-tagged KLHL2 protein (human, UniProt O95198 1-593)
T1 construct: Kelch Like Family Member 2 (KLHL2), human; source: recombinant
T1 sequence (looked up): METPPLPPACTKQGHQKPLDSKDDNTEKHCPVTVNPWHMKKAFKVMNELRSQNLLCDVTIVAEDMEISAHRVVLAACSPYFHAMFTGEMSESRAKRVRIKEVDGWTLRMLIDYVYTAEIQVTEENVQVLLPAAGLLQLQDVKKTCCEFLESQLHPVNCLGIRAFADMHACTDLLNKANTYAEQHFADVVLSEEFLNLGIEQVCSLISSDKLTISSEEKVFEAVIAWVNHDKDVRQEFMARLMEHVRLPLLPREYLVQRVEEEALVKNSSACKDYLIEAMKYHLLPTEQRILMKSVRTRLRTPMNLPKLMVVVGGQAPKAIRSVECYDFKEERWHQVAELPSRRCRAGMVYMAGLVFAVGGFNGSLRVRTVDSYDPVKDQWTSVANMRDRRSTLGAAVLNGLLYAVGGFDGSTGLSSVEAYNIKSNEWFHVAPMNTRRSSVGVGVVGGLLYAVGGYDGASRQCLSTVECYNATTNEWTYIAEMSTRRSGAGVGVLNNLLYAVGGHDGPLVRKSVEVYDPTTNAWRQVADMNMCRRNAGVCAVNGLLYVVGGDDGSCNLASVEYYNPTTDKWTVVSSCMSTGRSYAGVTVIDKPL
Test: pull-down; recombinant GST-UCK1 protein incubated with His-tagged KLHL2 protein; GST pull-down
Conditions: both partners purified

B1: Recombinant GST-UCK1 protein (enzyme, human, UniProt Q9HA47 1-277, looked up)
chain: MASAGGEDCESPAPEADRPHQRPFLIGVSGGTASGKSTVCEKIMELLGQNEVEQRQRKVVILSQDRFYKVLTAEQKAKALKGQYNFDHPDAFDNDLMHRTLKNIVEGKTVEVPTYDFVTHSRLPETTVVYPADVVLFEGILVFYSQEIRDMFHLRLFVDTDSDVRLSRRVLRDVRRGRDLEQILTQYTTFVKPAFEEFCLPTKKYADVIIPRGVDNMVAINLIVQHIQDILNGDICKWHRGGSNGRSYKRTFSEPGDHPGMLTSGKRSHLESSSRPH
notes: uridine-cytidine kinase 1 (UCK1), human; source: recombinant
B1: binds.
